Results reported in patent publication US20110091449A1 (University of Pennsylvania, published 2011).
Blank lines part the entries; values can stand above or below the binder they belong to.

Key:
[1] = target: T1, baculovirus-produced recombinant human Dsg4-EHis (human, UniProt Q86SJ6 50-631); assay: immunoprecipitation of Dsg4-EHis with scFv, anti-E tag immunoblot
T1 construct: not shown: E-tag and histidine tag
T1 sequence (looked up): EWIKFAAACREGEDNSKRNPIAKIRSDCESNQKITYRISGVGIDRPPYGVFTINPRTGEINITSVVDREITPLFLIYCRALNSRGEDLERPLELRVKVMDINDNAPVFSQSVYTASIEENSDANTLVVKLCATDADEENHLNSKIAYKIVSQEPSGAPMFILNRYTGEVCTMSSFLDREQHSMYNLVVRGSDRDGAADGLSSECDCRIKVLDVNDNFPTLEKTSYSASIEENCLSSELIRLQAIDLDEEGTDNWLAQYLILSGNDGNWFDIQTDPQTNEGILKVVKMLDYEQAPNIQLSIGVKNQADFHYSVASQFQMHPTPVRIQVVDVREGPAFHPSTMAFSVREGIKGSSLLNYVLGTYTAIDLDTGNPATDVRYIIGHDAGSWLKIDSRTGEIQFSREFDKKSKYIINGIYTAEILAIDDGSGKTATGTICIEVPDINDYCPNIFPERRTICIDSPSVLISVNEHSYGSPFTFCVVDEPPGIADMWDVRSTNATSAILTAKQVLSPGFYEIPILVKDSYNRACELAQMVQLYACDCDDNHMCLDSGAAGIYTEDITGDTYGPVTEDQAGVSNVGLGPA
Method: To determine whether anti-Dsg1 scFvs also bind Dsg4, baculovirus-produced recombinant human Dsg4-EHis and human Dsg1-EHis (“EHis” tag defined above) was used (Nagasaka et al., 2004 J. Clin. Invest 114:1484-1492.). Baculovirus-infected insect cell culture supernatants containing recombinant molecules were incubated with scFvs for 30 minutes and then immunoprecipitated with anti-HA agarose (Sigma-Aldrich) at 4° C. for 2 hours with gentle rotation. After washing with TBS-Ca, the immunoprecipitates were resuspended in Laemmli sample buffer, separated by SDS-PAGE, and transferred to nitrocellulose membranes (Bio-Rad Labratories). Membranes were probed with HRP-conjugated anti-E-tag antibody (1:2000 dilution, GE Healthcare Bio-Sciences).
Some pemphigus sera bind Dsg4, and this binding was due to antibodies against Dsg1 that cross react with Dsg4. To determine whether any of the anti-Dsg1 monoclonal antibodies crossreact with Dsg4, scFvs were used to immunoprecipitate recombinant Dsg4 containing a carboxy-terminal E-epitope tag, then identified its presence on an immunoblot stained with anti-E tag antibodies.

[2] = target: T2, recombinant human desmoglein 3 (Dsg3) on ELISA plates (MBL) (human, UniProt P32926 50-615, limits assumed); assay: Dsg3 ELISA (MBL), soluble scFv, anti-HA detection
T2 construct: Commercial Dsg3 ELISA plate (MBL)
T2 sequence (looked up): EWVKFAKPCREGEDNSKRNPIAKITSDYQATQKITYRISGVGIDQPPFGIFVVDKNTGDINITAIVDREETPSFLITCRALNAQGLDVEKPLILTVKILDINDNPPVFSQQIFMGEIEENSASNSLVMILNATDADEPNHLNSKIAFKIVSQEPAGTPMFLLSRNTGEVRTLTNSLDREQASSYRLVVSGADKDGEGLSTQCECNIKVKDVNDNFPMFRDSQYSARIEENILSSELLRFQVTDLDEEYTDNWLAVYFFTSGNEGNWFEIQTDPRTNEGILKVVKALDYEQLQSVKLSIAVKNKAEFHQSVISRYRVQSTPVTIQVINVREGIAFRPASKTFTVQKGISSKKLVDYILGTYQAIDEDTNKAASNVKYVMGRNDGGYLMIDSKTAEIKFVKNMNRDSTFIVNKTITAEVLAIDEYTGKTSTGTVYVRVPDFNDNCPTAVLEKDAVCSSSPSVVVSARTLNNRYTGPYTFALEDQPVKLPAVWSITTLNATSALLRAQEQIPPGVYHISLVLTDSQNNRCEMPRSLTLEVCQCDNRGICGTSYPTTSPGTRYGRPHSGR

binding result [1]: no binding
binding result [2]: no binding
B1: 3-30/3h (scFv)
scFv: ELVLTQPPSVPVAPGQTANISCGGNNIGRQTVHWYQQKPGQAPVLVVFDDSDRPAGIPERFSGSNSGNTATLTISRVEAGDEADYYCQVWDSSSDHVVFGGGTQLTVLGGGSSRSSSSGGGGSGGGGQVQLVQSGGGVVQSGRSLRLSCAASGFTFSDYAMHWVRQAPGKGLEWVAVISHGGTKKYTGDSVKGRFIISRDNSKNTVFLQMNSLRVEDTAVYYCARDRVEGYVWGGTFDHWGQGTPVTVSS
notes: VH3-30, VDJ12, VL gene 3h; pathogenic; also called PF1-8-15; VH3-30 clone

binding result [1]: no binding
binding result [2]: no binding
B2: 1-18/L12 (scFv)
scFv: ELQMTQSPSTLSASVGDRVTITCRASQGISNWLAWYQQKPGKAPKLLIHKASSLESGVPSRFSGSGSGTEFTLTISSLQPDDFATYYCQQYYTYPLTFGGGTKVEIKGGSSRSSSSGGGGSGGGGQVQLVQSGAEVKKPGASVKVSCKASGYTFTNYGITWVRQAPGQGLEWMGWISVYNGDTKYAQKLQGRVTMTTDTPTNTVYMELRSLRSDDTAVYYCARGYGSGNWDYWGQGTLVTVSS
notes: VH1-18, VDJ1, VL gene L12; also called PF1-2-6
